Assay results as given in patent publication US20110111494A1 (APOGENIX, published 2011).

T1: recombinant CD95-ligand (UniProt P48023 142-281, limits assumed)
T1 sequence (looked up): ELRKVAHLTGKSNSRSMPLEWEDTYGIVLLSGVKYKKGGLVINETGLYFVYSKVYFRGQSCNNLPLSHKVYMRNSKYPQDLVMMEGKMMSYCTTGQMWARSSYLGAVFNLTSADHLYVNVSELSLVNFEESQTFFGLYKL

B1: hs95R-A69-St (CD95R-RB69 fusion polypeptide) (receptor)
chain: RLSSKSVNAQVTDINSKGLELRKTVTTVETQNLEGLHHDGQFCHKPCPPGERKARDCTVNGDEPDCVPCQEGKEYTDKAHFSSKCRRCRLCDEGHGLEVEINCTRTQNTKCRCKPNFFCNSTVCEHCDPCTKCEHGIIKECTLTSNTKCKEEGSSGSSGSSGSGYIEDAPSDGKFYVRKDGAWVELPTASGPSSSSSSAWSHPQFEK
B2: hs95R-AT4-St (CD95R-T4 foldon fusion polypeptide) (receptor)
chain: RLSSKSVNAQVTDINSKGLELRKTVTTVETQNLEGLHHDGQFCHKPCPPGERKARDCTVNGDEPDCVPCQEGKEYTDKAHFSSKCRRCRLCDEGHGLEVEINCTRTQNTKCRCKPNFFCNSTVCEHCDPCTKCEHGIIKECTLTSNTKCKEEGSSGSSGSSGSGYIPEAPRDGQAYVRKDGEWVLLSTFLSGPSSSSSSAWSHPQFEK
B3: hs95R-ASPD-St (CD95R-SP-D fusion polypeptide) (receptor)
chain: RLSSKSVNAQVTDINSKGLELRKTVTTVETQNLEGLHHDGQFCHKPCPPGERKARDCTVNGDEPDCVPCQEGKEYTDKAHFSSKCRRCRLCDEGHGLEVEINCTRTQNTKCRCKPNFFCNSTVCEHCDPCTKCEHGIIKECTLTSNTKCKEEGSSGSSGSSGSGLPDVASLRQQVEALQGQVQHLQAAFSQYKKVELFPNGQSVGEKIFKTAGFVKPFTEAQLLCTQAGGQLASPRSAAENAALQQLVVAKNEAAFLSMTDSKTEGKFTYPTGESLVYSNWAPGEPNDDGGSEDCVEIFTNGKWNDRACGEKRLVVCEFGGSPSSSSSSAWSHPQFEK

Target: T1, recombinant CD95-ligand
Assay: cell-based or functional assay

Going from “dimeric CD95R-Fc fusion protein APG101 (from UniProt P25445 26-172)” to B1, the EC50 (inhibition of CD95L-induced apoptosis of Jurkat cells, Caspase 3/7 activity, Ac-DEVD-AFC cleavage) falls from 594 ng/mL to 87.6 ng/mL (6.8-fold).

Compared with B2, B3 is 6.2-fold higher in EC50 (inhibition of CD95L-induced apoptosis of Jurkat cells, Caspase 3/7 activity, Ac-DEVD-AFC cleavage): 92.6 ng/mL for the first, 573 ng/mL for the second.
